± gives the standard error. Fewer inactive variants are shown than the library holds. Bounds are passed on as bounds.

The source of these data is the supplement of paper PMC7125110.

The chains are these.
B1: glmS ribozyme (parent)
chain: AUAAAAGCGCCAGAACUACAGAAAUGUAGUUGACGAGGAGGAGGUUUAUCGAAUUUUCGGCGGAUGCCUCCAAA

What all share (details): with glucosamine-6-phosphate
Variants of B1 are the subject of series [1]. As to the kind of experiment: self-cleavage kobs at 640 uM GlcN6P; higher = faster cleavage; RNA array. In short, it runs like this: (§1)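 Barcoded ribozyme variants were transcribed in situ on sequenced MiSeq chips by E. coli RNA polymerase. At 37 °C, a hybridised Cy3 probe tracked them while glucosamine-6-phosphate (40 μM to 10 mM) in HEPES/KCl/Mg(OAc)2 buffer flowed in and tiles were imaged over ~14 h. Per-tile medians of signals normalised to baseline and to non-cleaving reference variants were fit to one- or two-exponential decays, giving kobs. kcat and KM came from weighted Michaelis–Menten fits across concentrations.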

Variants of B1 are the subject of series [2]. Put plainly: self-cleavage kobs at 2500 uM GlcN6P; higher = faster cleavage; RNA array. In short, it runs like this: as §1
Series [3] covers variants of B1. As to the kind of experiment: self-cleavage kobs at 10000 uM GlcN6P; higher = faster cleavage; RNA array. In short, it runs like this: as §1

C8G A33C U45C U56C G59C: in the series with glucosamine-6-phosphate [1], the “self-cleavage kobs at 640 uM GlcN6P” value was below 1e-05 s⁻¹. For the same variant, the “self-cleavage kobs at 2500 uM GlcN6P” value in the series with glucosamine-6-phosphate [2] is below 1e-05 s⁻¹.
Consider U45G U49G, for which the “self-cleavage kobs at 640 uM GlcN6P” value in the series with glucosamine-6-phosphate [1] was determined as 0.000102 ± 1.6e-05 s⁻¹. For the same variant, in the series with glucosamine-6-phosphate [2], the “self-cleavage kobs at 2500 uM GlcN6P” value amounted to 0.000422 ± 8.4e-05 s⁻¹.
In the case of G21U U54C U69C, the “self-cleavage kobs at 640 uM GlcN6P” value with glucosamine-6-phosphate [1] was found to be 0.00201 ± 0.00057 s⁻¹. The “self-cleavage kobs at 2500 uM GlcN6P” value with glucosamine-6-phosphate [2] amounted to 0.000416 ± 0.00014 s⁻¹.
As for A42U G60C C61U, the “self-cleavage kobs at 640 uM GlcN6P” value in the series with glucosamine-6-phosphate [1] is below 1e-05 s⁻¹.
Same read-out and setting: then G38C C58A C71U, with below 1e-05 s⁻¹.
As to G7U A15U G44C, the “self-cleavage kobs at 640 uM GlcN6P” value with glucosamine-6-phosphate [1] is below 1e-05 s⁻¹. For the same variant, the “self-cleavage kobs at 2500 uM GlcN6P” value with glucosamine-6-phosphate [2] is below 1e-05 s⁻¹.
On to C34A G35A U65G, for which, in the series with glucosamine-6-phosphate [1], the “self-cleavage kobs at 640 uM GlcN6P” value is below 1e-05 s⁻¹.
On to C11G U45C C50G, for which the “self-cleavage kobs at 640 uM GlcN6P” value in the series with glucosamine-6-phosphate [1] is below 1e-05 s⁻¹. The “self-cleavage kobs at 2500 uM GlcN6P” value with glucosamine-6-phosphate [2] was below 1e-05 s⁻¹.
As to C16U G35U A64C, in the series with glucosamine-6-phosphate [1], the “self-cleavage kobs at 640 uM GlcN6P” value is below 1e-05 s⁻¹. Besides, the “self-cleavage kobs at 2500 uM GlcN6P” value in the series with glucosamine-6-phosphate [2] is below 1e-05 s⁻¹.
Regarding G7U G38U G40U, the “self-cleavage kobs at 640 uM GlcN6P” value with glucosamine-6-phosphate [1] was below 1e-05 s⁻¹.
As to G29C G35C G38U G51U G59A, the “self-cleavage kobs at 640 uM GlcN6P” value with glucosamine-6-phosphate [1] was below 1e-05 s⁻¹. The “self-cleavage kobs at 2500 uM GlcN6P” value with glucosamine-6-phosphate [2] is below 1e-05 s⁻¹.
On to C34A G43U U55G U57G C61A, for which, in the series with glucosamine-6-phosphate [1], the “self-cleavage kobs at 640 uM GlcN6P” value is below 1e-05 s⁻¹.
In the case of A14G U31G C67G, the “self-cleavage kobs at 640 uM GlcN6P” value with glucosamine-6-phosphate [1] was 6.87e-05 ± 2.7e-05 s⁻¹. In the series with glucosamine-6-phosphate [2], the “self-cleavage kobs at 2500 uM GlcN6P” value was 5.23e-05 ± 1.9e-05 s⁻¹.
For U47A G51A C71G, the “self-cleavage kobs at 640 uM GlcN6P” value with glucosamine-6-phosphate [1] came to 0.0001 ± 3.9e-05 s⁻¹.
Consider C11U C58A A64C, for which the “self-cleavage kobs at 640 uM GlcN6P” value with glucosamine-6-phosphate [1] is below 1e-05 s⁻¹.
In the case of G29A G35C A48G, in the series with glucosamine-6-phosphate [1], the “self-cleavage kobs at 640 uM GlcN6P” value was below 1e-05 s⁻¹.
For G29U G35A U45G, the “self-cleavage kobs at 640 uM GlcN6P” value with glucosamine-6-phosphate [1] was below 1e-05 s⁻¹.
On to C11G G38A G43C, for which, in the series with glucosamine-6-phosphate [1], the “self-cleavage kobs at 640 uM GlcN6P” value is below 1e-05 s⁻¹. In addition, the “self-cleavage kobs at 2500 uM GlcN6P” value with glucosamine-6-phosphate [2] was below 1e-05 s⁻¹.
Consider G32A G37U A48C G66C, for which the “self-cleavage kobs at 640 uM GlcN6P” value with glucosamine-6-phosphate [1] is below 1e-05 s⁻¹.
For the variant C11U C16U U45A, the “self-cleavage kobs at 640 uM GlcN6P” value with glucosamine-6-phosphate [1] was determined as 0.000806 ± 0.00021 s⁻¹. In the series with glucosamine-6-phosphate [2], the “self-cleavage kobs at 2500 uM GlcN6P” value amounted to 0.00127 ± 0.00037 s⁻¹.
For the variant A6G U54A U57G, in the series with glucosamine-6-phosphate [1], the “self-cleavage kobs at 640 uM GlcN6P” value is below 1e-05 s⁻¹.
For U31G C58A G60C, the “self-cleavage kobs at 640 uM GlcN6P” value with glucosamine-6-phosphate [1] was below 1e-05 s⁻¹. Further, the “self-cleavage kobs at 2500 uM GlcN6P” value with glucosamine-6-phosphate [2] was below 1e-05 s⁻¹.
With C16A G43U, the “self-cleavage kobs at 640 uM GlcN6P” value with glucosamine-6-phosphate [1] is below 1e-05 s⁻¹. Besides, the “self-cleavage kobs at 10000 uM GlcN6P” value with glucosamine-6-phosphate [3] is below 1e-05 s⁻¹.
Consider A12G A14U C16G U46A A53U, for which, in the series with glucosamine-6-phosphate [1], the “self-cleavage kobs at 640 uM GlcN6P” value was below 1e-05 s⁻¹.
As to A6G A15C C34A A36U, the “self-cleavage kobs at 640 uM GlcN6P” value with glucosamine-6-phosphate [1] was below 1e-05 s⁻¹. In addition, the “self-cleavage kobs at 2500 uM GlcN6P” value in the series with glucosamine-6-phosphate [2] is below 1e-05 s⁻¹.
Regarding C61U C68G, the “self-cleavage kobs at 640 uM GlcN6P” value with glucosamine-6-phosphate [1] is 4.29e-05 ± 1.5e-05 s⁻¹.
For the variant A48C U49G C50A, the “self-cleavage kobs at 640 uM GlcN6P” value in the series with glucosamine-6-phosphate [1] is below 1e-05 s⁻¹.
For C50G A52U G63C, the “self-cleavage kobs at 640 uM GlcN6P” value with glucosamine-6-phosphate [1] is below 1e-05 s⁻¹. In the series with glucosamine-6-phosphate [2], the “self-cleavage kobs at 2500 uM GlcN6P” value was below 1e-05 s⁻¹.
As to G7U G35C A39U U65C, in the series with glucosamine-6-phosphate [1], the “self-cleavage kobs at 640 uM GlcN6P” value is below 1e-05 s⁻¹.
Consider A42G A52U, for which the “self-cleavage kobs at 640 uM GlcN6P” value in the series with glucosamine-6-phosphate [1] was 5.23e-05 ± 1.2e-05 s⁻¹. Further, in the series with glucosamine-6-phosphate [2], the “self-cleavage kobs at 2500 uM GlcN6P” value worked out at 0.000479 ± 9.3e-05 s⁻¹. Besides, the “self-cleavage kobs at 10000 uM GlcN6P” value with glucosamine-6-phosphate [3] is 0.000467 ± 9.8e-05 s⁻¹.
Consider G9A C16U U30G G38U, for which the “self-cleavage kobs at 640 uM GlcN6P” value with glucosamine-6-phosphate [1] was below 1e-05 s⁻¹. Also, the “self-cleavage kobs at 2500 uM GlcN6P” value in the series with glucosamine-6-phosphate [2] was below 1e-05 s⁻¹.
U45A U57G G62A: in the series with glucosamine-6-phosphate [1], the “self-cleavage kobs at 640 uM GlcN6P” value is below 1e-05 s⁻¹. Moreover, in the series with glucosamine-6-phosphate [2], the “self-cleavage kobs at 2500 uM GlcN6P” value is below 1e-05 s⁻¹.
Regarding A12G G21A G43U G59C C70U, the “self-cleavage kobs at 640 uM GlcN6P” value with glucosamine-6-phosphate [1] was below 1e-05 s⁻¹. Moreover, the “self-cleavage kobs at 2500 uM GlcN6P” value with glucosamine-6-phosphate [2] was below 1e-05 s⁻¹.
Turning to C8U A39U G40C U56G U57G, the “self-cleavage kobs at 640 uM GlcN6P” value with glucosamine-6-phosphate [1] was below 1e-05 s⁻¹.
